Laboratory results: US20070087411A1

Each substance was assayed against recombinant human IL-1β (human) (UniProt P01584) (assay: cell-based or functional assay).
UniProt P01584, sequence (P01584 117-269 limits assumed): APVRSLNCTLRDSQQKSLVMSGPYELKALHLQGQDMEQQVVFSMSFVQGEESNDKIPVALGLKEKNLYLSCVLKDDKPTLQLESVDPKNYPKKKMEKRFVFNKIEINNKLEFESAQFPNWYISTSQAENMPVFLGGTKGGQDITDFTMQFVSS

Substance	IC50 pM (HEK293/NFκB-luciferase bioassay, IL-1β at 4 pM) [pM]
hIL-1RAcp.hIL-1R1.myc.myc.His6 (receptor)	3400
hIL-1RI.TG.hFc.ARA.CTP.TG.hFc.ARA.hIL-1RAcP (Fc fusion)	23
hIL-1RAcp.hIL-1R1.TG.hFc.ARA.CTP.TG.hFc (Fc fusion)	100
